Assay results published in a protein production outcome set (Wang et al. 2014).

Test: label from the status in PepcDB records

| Sequence | protein production |
| --- | --- |
| MSSPTRTSAKDRLSGVWALKGYKREWLRHDIVAGAALFALLVPAGMAYAQAAGLPPVTGLYATVVPLLVYAIVGPSRILVLGPDSALAPMIAAAIVPLAAGSSEKSVALAGLLAVLIGVIMLAGSALKLGTITGLLSKPIRLGYLNGIALLVLLSQLPAFFGIEADGDIWEKLAKVTTGVLGGGVNVTALLLGSGSLALIWIPRLLKWKVPGVLLAVVGSCVVTAVWGLNDDVKVTGVLPQGLPMPALGGIGWADALTLLPAAAGIALMAFADTGVLSQTLAAKEGKKVSGNREMAALGAANAATGLLGGFPISGSTSRTPVAVDAGAKSQMTGVVGSVLVLAFMLLAPGVTEYLPSATLAAVVIAAAIALADPAGVKRLLSLSRSESVVMLAAFLGVLTVGVLQGIVVAIALALLDFVRRAWDPYRTELGAEEGLPGYHDLERHPDGERIPGLLILRFDAPLFFGNGQVLAAFVREQLDEAPDETTDAITHVILAAEPITGIDTTALDDLVTLDEWLASKGVDLVFAELKGPVKDKLIHLGTAARFTPDHFFPTVGAAVRTLKNE | failed |
| MSSQTILSVNNLSVSFTTNDGIVDAVKNVSFELQAGETLSIVGESGSGKSVSTNALMTLLPDNAIVHPDSSIMFEGESILDKTERQMQRIRGDRIGMIFQEPMTSLNPYMRVGIQVAEAMMCHRSVNQRKAKERVLELFDLVHLPNPQQAYDKYPHEFSGGQLQRIMIAMALINEPDILIADEPTTALDVTVQAEVLLLIKEIQAKMGMAILFITHDLGVVKHFADRVLVMCKGEVVEEGITEHLFSEPQHEYTKMLINSIPKGSKTPVDEKASELLNAEDIR | not failed |
| MSSRLARFALSGYRIAGIAAYPFARPYLSYRAAKGKEDKRRRLERFGYASAERPRGPLVWFHAASVGETLALIPLIREIRKRDIFVLLTTGTVTSAELTRTRLGDDVIHQYVPLDIKIAVNRFLTYWAPDAAITAESEIWPVTMMELERRHIPQIRVNARLSDRSFDRWKARHDIAESLFSKLALVVAQSDLDAERFRDLGSWPVVISGNLKGDTDPPPCDEALLESYRKQVGNRKTWAAISTFDGEEKAAATVHAAIKSRNGQLTIIVPRHPERGDDVEAMLKGMNLSVARRSRNDVITPGTDIFLGDSIGEMGLYLRLTELAFVGRSLTAEGGQNPLEPAMLGCAVLSGAHVQNFREAYQKLIRAGGGRIIRDVEMLAKAVHYLLVNDNERYKMIDAGNRVIQDMRGALSSTVKALEPYINPLTVSAKLQPRSAIGSWLEHHHHHH | failed |
| MSSSDGKLRYDGRVAVVTGAGAGLGREYALLFAERGAKVVVNDLGGTHSGDGASQRAADIVVDEIRKAGGEAVADYNSVIDGAKVIETAIKAFGRVDILVNNAGILRDRSLVKTSEQDWNLVNDVHLKGSFKCTQAAFPYMKKQNYGRIIMTSSNSGIYGNFGQVNYTAAKMGLIGLANTVAIEGARNNVLCNVIVPTAASRMTEGILPDILFNELKPKLIAPVVAYLCHESCEDNGSYIESAAGWATKLHMVRGKGAVLRPSLDDPVTIEYVKDVWSNVTDMSKAKHLGAIAEASGTLLEVLEKLKEGGGDAIEDAFEFNSKELITYALGIGASVKNAKDMRFLYENDADFAAIPTFFVLPGLLLQMSTDKLLSKALPNSQVDFSNILHGEQYLEIVDDLPTSGTLLTNGKVFDVMDKGSGAVVVTNSESFDESGRLLVRNQSTTFIVGAGKFGGKKDPIAGVVPLQPAPNRQPDATVQYTTSEDQAALYRLSGDKNPLHIDPQMALLAGFKTPILHGLCTLGFSVRAVLAQFADNNPALFKAVKVRFSGPVIPGQTLRVDLWKQGTRINFRTVVVETGKEVISGAYVDLKSSQAKL | failed |
| MSSSDIFIGETIGTAVLILLGGGVCAAVTLKASKARNAGWLAITFGWGFAVLTAVYISAPLSGAHLNPAVTLALAIKDNDWSNVPTYWAGQLLGAMIGAALVWVAYYGQFHAHLTDHEIVGGPGAQATKTKAVEAQETGAGPVLGVFSTGPEVRNVVQNLATEIIGTVVLVLAILTQGLNDNGNGLGTIGALITSLVVVSIGLSLGGPTGYAINPARDLGPRIVHALLPLPNKGGSDWSYAWIPVVGPLIGAAIAAGIYNVAFA | failed |
| MSSSIEIFPDSDILVAAAGKRLVGAIGAAVAARGQALIVLTGGGNGIALLRYLSAQAQQIEWSKVHLFWGDERYVPEDDDERNLKQARRALLNHVDIPSNQVHPMAASDGDFGGDLDAAALAYEQVLAASAAPGDPAPNFDVHLLGMGPEGHINSLFPHSPAVLESTRMVVAVDDSPKPPPRRITLTLPAIQRSREVWLLVSGPGKADAVAAAIGGADPVSVPAAGAVGRQNTLWLLDRDAAAKLPS | not failed |
| MSSSLDLAPELSVASTHPASTLAGHQPDLVLSPRLHNRDLAPTRMEGRRWGGYSIFALWTNDVHNIANYSFAMGLFALGLGGWQILLSLAIGAALVYFFMNLSGYMGQKTGVPFPVISRIAFGIHGAQIPALIRAVIAIAWFGIQTYLASVVLRVLLTAVWPQIAAYDHDSILGLSSLGWVCFVSIWLVQLVILAYGMEMVRRYEAFAGPVILLTVAALAVFMYFKADARIAWSVATPLTGYEMWRNIFAGGALWLAIYGTLVLNFCDFARSSPCRKTIRVGNFWGLPVNILVFAVITVVLCGAQFQINGQIIDSPTQIVAAIPSTPFLVLGCLAFLIVTVAVNIMANFVAPAFVLSNLAPRHLNFRRAGLISATLAVLILPWNLYNSPLVIVYFLSGLGALLGPLYGVIMSDYWLLRKGCINVPELYTEHPAGAYHYSKGINLRAVAAFVPAALLAIVLALVPNFQGIAPFSWLIGAGIAAALYLLIAPRNRHYHDVSGECIAVDHSGH | failed |
| MSSSPEKKRRKKLSPESNSLPNDLIVTILARLSQSYYPKLSLVSKTFRAILASPELYQTRILLSRTETFLYVCLSFPGEPNPGWFTLYRKPNQTLTTKKKKNSVHLLAPILNSPPVEFPSLIAVGSYLYAFRAAIEEGTSDSLNCVEVYNTDTQTWIPVPPNKRIFKLQHMKGMLYMKVSKLLSFVAQDAEELAPLFPKLRSLLSTEVVAFKPKVSEGYEVLGFSVNTDLGRGSFCMIEEITYHYDPSVKFRWRRRQGGVWRSLVGLEGLPKFARYSSVKLADCGGKLVVLWHKYVPASGYEEKMVWCAEISLEKRSKKEIWGKIEWFDAVLRVPKYYQFVGAKSATV | failed |
| MSSSSPGEPLEPTDQDLDVLLKNLGNLVTPMALRVAATLRLVDHLLAGADTLAGLADRTDTHPQALSRLVRHLTVVGVLEGGEKQGRPLRPTRLGMLLADGHPAQQRAWLDLNGAVSHADLAFTGLLDVVRTGRPAYAGRYGRPFWEDLSADVALADSFDALMSCDEDLAYEAPADAYDWSAVRHVLDVGGGNGGMLAAIALRAPHLRGTLVELAGPAERARRRFADAGLADRVTVAEGDFFKPLPVTADVVLLSFVLLNWSDEDALTILRGCVRALEPGGRLLVLDRADVEGDGADRFFSTLLDLRMLTFMGGRVRTRDEVVDLAGSAGLALASERTSGSTTLPFDFSILEFTAVSEEAAPAAQASEALPAQE | not failed |
| MSSSSPSGSGSDLTERRGIPAAKFIQDVETYLSQSGLDPNSALAFHQERLQQYKVVEMKLLAQQRDLQAKIPDIEKCLEVVATLEAKKGTGEALLADFEVSEGIYSRACIEDTDSVCLWLGANVMLEYSCEEASALLKNNLENAKASLEVLVADLQFLRDQVTVTQVTIARVYNWDVHQRRVKQVTPTAIAVADS | failed |
| MSSTASSVFADETLLFEPATPIANAVPLIFAFPNEYSVGITSLGFQIVWATLAARSDLQVSRLFTDIAEPLPRQPELLGFSLSWELDYVNILAMLEQLGIPLRSRDRGDEHPLVFGGGPTLTANPEPFADFFDVILVGDGEVLLDAFIDAYQPLRDRPRAEKLRQLAQVPGLYIPALYEPIYEAADGAIATIQPIDNDIPVQIEKQTYRGNVLSASTVVTPRAAWESIYMVEVVRSCPEMCRFCLASYLTLPFRTASLEESLQPAIARGLTATQRIGLLGASVTQHPEFPALLDRLGQPEFTDVRLSVASVRTNTVTEKFASILAQRGTKSLTIAVESGSERLRQVINKKLAQAEITEAAVNAKAGGLQGLKLYGMAGVPTETEDDLLATAEMLKGLKKAAPGLRLSYGCSTFVPKAQTPFQWQGVSPKAEKRLQFLQKQLRPQGIEFRPESYSWSVIQALISRGDRRLSSLLERVRHYGESLGSYRRAFKELKGTLPPLDFYVFQDWEPEAPLPWQHLRGPLPVETLRKHRQQAFAIAAAGVGSK | failed |
| MSSTPATPAISPTQQSALALWRMRLITLLPLGAIAWISMVLADHPAIAHYGLSALTLAMGAGMVAANTMPKHWLAPLAPGMQFARHHLLRLGVALYGLRLTFGAIAALGVGGVVVPLTMLVATLLFGTWVGSSFFGLSRREAILVSAGSAVCGAAAAIAVSSVVRTDDRQTAVAVATVVLFGTVGMLLYPWLYELATQHWHLAISERSFGIFTGATLHEVAQVIASGKMVSDGAADAAVVAKMVRVLALGPLLLVMALWPRTSWSQASGGSRNLHGLLRSVPWFALGFVAVMALNSAQMVPADWKPALIGFDNWMLACAMLAIGLHTRIGDLLRAGRKPLALAGVLFLFLMVVGAALCALLV | failed |
| MSSTSFTDLLGSSGVDCYEDDEDLRVSGSSFGGYYPERTGSGLPKFKTAQPPPLPISQSSHNFTFSDYLDSPLLLSSSHSLISPTTGTFPLQGFNGTTNNHSDFPWQLQSQPSNASSALQETYGVQDHEKKQEMIPNEIATQNNNQSFGTERQIKIPAYMVSRNSNDGYGWRKYGQKQVKKSENPRSYFKCTYPDCVSKKIVETASDGQITEIIYKGGHNHPKPEFTKRPSQSSLPSSVNGRRLFNPASVVSEPHDQSENSSISFDYSDLEQKSFKSEYGEIDEEEEQPEMKRMKREGEDEGMSIEVSKGVKEPRVVVQTISDIDVLIDGFRWRKYGQKVVKGNTNPRSYYKCTFQGCGVKKQVERSAADERAVLTTYEGRHNHDIPTALRRS | failed |
| MSSWMMVPVVFLTAYSDPETIGRARRAGAYGYLLKPYDDRKLRAAVETALRRYRADVRDILKVHETAVRGPVPGVLIVEDEAIIAADLKQKLENAGFRVLGVHDTGEGAIAAASELEPDVVIMDVYIRGEMDGIKAAERIQERYGIPVIYLTAYSDDATLSRILESEPYGYLLKPLNTEQLQAEIEVVLENLRTTEDYSRRVREVLVTKAEEMKIEKTGIFFVSSVITALAVYGFITGSMTWLMYTLFIPTVYSLMHLAFSFGEPEKPSSSAMPMVSIIVPANNEENTIEGCVETLSALDYHVNGERNYEIIVVNDGSTDRTGEILEGLLRKHRHLKAVTRKAPFAFNGRVMPSMMVSPLPRGIL | failed |
| MSSWRKPGPIPRDLSVEIDSSTERRIIAKLLPGVMGPGFRQDDAGEAAMSDPSAHWNNVYATKGETEVSWFQESPAISLDMIRSANVDRGAGIIDIGGGASRLVDALLQDGYRNLAVLDLSANALDAAKRRIGPAAASVDWIVADATTWRPARSYEVWHDRAAFHFLTDPRDRAAYVERLRSAVAAGGHVIIATFALDGPEKCSGLPVQRHDSKSLSTELGPDFELIETRSETHHTPWKSTQAFQFSRFRRRGS | failed |
| MSSYSNELLMLIFRSMLCKQVLIFFAYSGLYYLVTYFMDKKIQHQKQFLLKLGLVKLKKRNKTRWEKIRWRMQLCLIVSILVLVVSTFVLNPDDQYILLVIYVMKLATFTSFAIAFVDSLGPIKEIQQLIVGAQSSDTLDSDKKVLTVTIFKKIRWMLILYQVLKVPALIIILTLSVDY | failed |
| MSTAAETTGGDIEPWEEVTPDAARRLLVAAVEAFAERGYHATTTRDIAGRAGMSPAALYIHYKTKEELLHRISRIGHTRAVAILRSAAQGEGSAAERLADAVSSFVRWHAGRRTTARVVQYELDALGPEAREEILTLRRQCDAAVRGIIDDGVAAGEFDVPDVKGTTLAVLSLCIDVARWFNVNGPRTPDEVGALYADLVLRMVGAEPSGATAQR | not failed |
